This note sets out measurements from IntAct's records for PubMed 26365382.

B1: Zinc finger protein RFP (Homo sapiens), P14373 (parent)
chain: MASGSVAECLQQETTCPVCLQYFAEPMMLDCGHNICCACLARCWGTAETNVSCPQCRETFPQRHMRPNRHLANVTQLVKQLRTERPSGPGGEMGVCEKHREPLKLYCEEDQMPICVVCDRSREHRGHSVLPLEEAVEGFKEQIQNQLDHLKRVKDLKKRRRAQGEQARAELLSLTQMEREKIVWEFEQLYHSLKEHEYRLLARLEELDLAIYNSINGAITQFSCNISHLSSLIAQLEEKQQQPTRELLQDIGDTLSRAERIRIPEPWITPPDLQEKIHIFAQKCLFLTESLKQFTEKMQSDMEKIQELREAQLYSVDVTLDPDTAYPSLILSDNLRQVRYSYLQQDLPDNPERFNLFPCVLGSPCFIAGRHYWEVEVGDKAKWTIGVCEDSVCRKGGVTSAPQNGFWAVSLWYGKEYWALTSPMTALPLRTPLQRVGIFLDYDAGEVSFYNVTERCHTFTFSHATFCGPVRPYFSLSYSGGKSAAPLIICPMSGIDGFSGHVGNHGHSMETSP

In the experiment the parent is B1. The following applies: with magl2_human MAGEL2, Q9UJ55.
Sequence of magl2_human MAGEL2, Q9UJ55 (Q9UJ55 whole entry): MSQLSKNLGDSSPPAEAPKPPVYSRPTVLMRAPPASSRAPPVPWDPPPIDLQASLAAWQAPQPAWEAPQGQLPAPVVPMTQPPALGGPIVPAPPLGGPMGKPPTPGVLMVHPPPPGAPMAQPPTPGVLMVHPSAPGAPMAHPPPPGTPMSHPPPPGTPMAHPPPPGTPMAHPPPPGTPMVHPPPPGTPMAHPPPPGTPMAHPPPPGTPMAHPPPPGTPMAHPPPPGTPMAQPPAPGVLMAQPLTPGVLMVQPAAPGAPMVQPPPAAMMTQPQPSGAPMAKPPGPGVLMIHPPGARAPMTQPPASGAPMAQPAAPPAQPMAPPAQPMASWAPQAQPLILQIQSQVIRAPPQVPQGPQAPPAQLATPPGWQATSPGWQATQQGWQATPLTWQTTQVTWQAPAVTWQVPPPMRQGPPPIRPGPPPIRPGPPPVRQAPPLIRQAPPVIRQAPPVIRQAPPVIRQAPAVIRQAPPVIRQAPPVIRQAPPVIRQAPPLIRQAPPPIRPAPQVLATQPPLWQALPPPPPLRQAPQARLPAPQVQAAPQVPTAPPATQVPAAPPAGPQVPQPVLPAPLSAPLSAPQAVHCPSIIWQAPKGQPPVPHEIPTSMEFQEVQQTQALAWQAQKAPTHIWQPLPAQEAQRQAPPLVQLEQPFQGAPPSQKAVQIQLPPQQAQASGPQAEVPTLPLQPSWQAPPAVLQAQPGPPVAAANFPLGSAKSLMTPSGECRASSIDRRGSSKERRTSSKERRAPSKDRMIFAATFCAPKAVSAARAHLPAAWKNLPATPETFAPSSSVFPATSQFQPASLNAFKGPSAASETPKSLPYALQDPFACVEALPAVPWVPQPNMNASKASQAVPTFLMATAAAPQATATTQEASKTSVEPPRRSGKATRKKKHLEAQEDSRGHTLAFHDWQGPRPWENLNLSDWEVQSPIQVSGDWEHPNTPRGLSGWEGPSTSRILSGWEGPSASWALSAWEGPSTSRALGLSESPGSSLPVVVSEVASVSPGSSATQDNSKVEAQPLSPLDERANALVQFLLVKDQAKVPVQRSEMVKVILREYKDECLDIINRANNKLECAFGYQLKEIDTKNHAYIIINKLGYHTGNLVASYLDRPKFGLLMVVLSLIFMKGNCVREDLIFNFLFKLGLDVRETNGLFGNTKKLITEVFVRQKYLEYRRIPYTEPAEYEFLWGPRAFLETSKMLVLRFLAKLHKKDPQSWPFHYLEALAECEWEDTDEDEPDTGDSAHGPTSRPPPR
Consider K304R;K380R;K382R, for which the “effect of a mutation on the interaction” value is “with no effect”.
